Experimental data from paper doi:10.1101/2023.01.24.525215.

Tests used:
Assay in all cases: EMSA
CAM5 = CAM5 (Arabidopsis thaliana, UniProt Q682T9 1-149)
WRKY53 = biological target: T1, WRKY53 (Arabidopsis thaliana, UniProt Q9SUP6 1-324)
T1 sequence: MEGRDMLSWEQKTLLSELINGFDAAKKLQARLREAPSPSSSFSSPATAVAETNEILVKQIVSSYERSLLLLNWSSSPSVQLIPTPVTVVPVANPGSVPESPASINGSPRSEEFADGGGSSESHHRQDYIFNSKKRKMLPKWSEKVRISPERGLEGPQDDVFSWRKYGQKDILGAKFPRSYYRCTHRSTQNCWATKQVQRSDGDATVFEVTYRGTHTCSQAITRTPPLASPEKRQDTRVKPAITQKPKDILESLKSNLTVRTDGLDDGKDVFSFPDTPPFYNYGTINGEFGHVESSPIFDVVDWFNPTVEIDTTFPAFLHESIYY

TGA5 = biological target: T2, TGA5 (Arabidopsis thaliana, UniProt Q39163 1-330)
T2 sequence: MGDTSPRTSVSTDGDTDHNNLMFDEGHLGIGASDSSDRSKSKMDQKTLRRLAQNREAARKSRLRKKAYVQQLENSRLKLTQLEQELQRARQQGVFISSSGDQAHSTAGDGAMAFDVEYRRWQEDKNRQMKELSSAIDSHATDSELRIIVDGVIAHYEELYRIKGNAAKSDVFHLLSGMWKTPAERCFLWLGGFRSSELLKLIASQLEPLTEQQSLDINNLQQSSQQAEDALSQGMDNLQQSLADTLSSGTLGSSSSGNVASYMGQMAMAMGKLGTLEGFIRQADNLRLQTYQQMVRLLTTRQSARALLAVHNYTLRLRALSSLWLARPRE

B1: PR1 w-box probe (dsDNA)
DNA 1: TTTATTTGAAAATTGACTGTAGATATAAAC
DNA 2: GTTTATATCTACAGTCAATTTTCAAATAAA
binding result (CAM5): no binding | binding result (WRKY53): binds | binding result (TGA5): binds

B2: PDF1.2 as-1 probe (dsDNA)
DNA 1: ATGTTGTATTTGTTCGACGATGACGAAGGT
DNA 2: ACCTTCGTCATCGTCGAACAAATACAACAT
binding result (WRKY53): no binding | binding result (TGA5): binds

B3: PDF1.2 w-box probe (dsDNA)
DNA 1: ATAATTATTCTTGACTGATGTATGCATATA
DNA 2: TATATGCATACATCAGTCAAGAATAATTAT
binding result (CAM5): no binding | binding result (WRKY53): binds
